# Data taken from the supplement of paper PMC10724198.
# ± gives the standard deviation of the averaged measurements.
# Assays:
# Saccharomyces cerevisiae [1] = assay: protein stability index of tFT-peptide fusion (C-terminal peptide) (PSI (0-1 scale)); higher = more stable (slower turnover)
# Experimental: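 MPS profiling in S. cerevisiae of the tFT-X12 degron library: putative degron peptides plus stable controls, 12 aa, fused to the C-terminus of a sfGFP-mCherry timer. Cells are FACS-sorted into 8 mCherry/sfGFP bins and deep-sequenced. PSI runs from 0 (unstable) to 1 (stable). Backgrounds are wild type, das1Δ and doa10Δ at 30 °C, and wild type, das1Δ, cdc34-1 and cdc53-1 at 37 °C; 2-3 technical replicates each.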
# Saccharomyces cerevisiae [2] = assay: as above; conditions: genetic background: wild type; temperature: 30 C
# [3] = genetic background: cdc34-1, temperature: 37 C
# [4] = genetic background: cdc53-1, temperature: 37 C
# [5] = genetic background: das1 deletion, temperature: 30 C
# [6] = genetic background: das1 deletion, temperature: 37 C
# [7] = genetic background: doa10 deletion, temperature: 30 C
# [8] = genetic background: wild type, temperature: 30 C
# [9] = genetic background: wild type, temperature: 37 C
# 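Also: PSI is a weighted mean of sequencing reads over stability bins, variants kept only with over 10 reads, mCherry proximal and sfGFP distal, peptide attached via GGGS linker.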
Sequence,protein stability index (Saccharomyces cerevisiae [1]; [3]),protein stability index (Saccharomyces cerevisiae [1]; [4]),protein stability index (Saccharomyces cerevisiae [1]; [5]),protein stability index (Saccharomyces cerevisiae [1]; [6]),protein stability index (Saccharomyces cerevisiae [1]; [7]),protein stability index (Saccharomyces cerevisiae [1]; [8]),protein stability index (Saccharomyces cerevisiae [1]; [9]),protein stability index (Saccharomyces cerevisiae [2])
SVVFFYPPIFHA,0.636 ± 0.057,0.7392 ± 0.006,0.678 ± 0.053,0.713 ± 0.016,0.28 ± 0.0055,0.326 ± 0.027,0.549 ± 0.011,0.437 ± 0.044
SVVYSVWIYLLH,0.352 ± 0.018,0.4407 ± 0.0016,0.292 ± 0.022,0.484 ± 0.026,0.175 ± 0.0072,0.213 ± 0.03,0.392 ± 0.011,0.309 ± 0.0075
TEVGAWLLLCRC,0.271 ± 0.051,0.307 ± 0.01,0.268 ± 0.034,0.403 ± 0.02,0.231 ± 0.0043,0.277 ± 0.017,0.385 ± 0.0097,0.363 ± 0.009
TFLVWSLMAGDR,0.449 ± 0.033,0.5276 ± 0.00077,0.447 ± 0.023,0.4667 ± 0.0043,0.484 ± 0.011,0.474 ± 0.043,0.459 ± 0.032,0.464 ± 0.03
TFRVLAFFCRVV,0.453 ± 0.0089,0.538 ± 0.015,0.47 ± 0.03,0.616 ± 0.059,0.308 ± 0.0053,0.286 ± 0.025,0.3902 ± 0.0029,0.367 ± 0.012
TKGIIKKINIIM,0.624 ± 0.14,0.73 ± 0.039,0.617 ± 0.016,0.724 ± 0.0084,0.154 ± 0.0088,0.206 ± 0.035,0.467 ± 0.09,0.36 ± 0.014
TLCCLVCSQGVV,0.478 ± 0.051,0.598 ± 0.013,0.471 ± 0.027,0.5217 ± 0.0031,0.482 ± 0.031,0.479 ± 0.039,0.526 ± 0.01,0.484 ± 0.016
TLFSPPVLATPS,0.624 ± 0.042,0.6754 ± 0.0047,0.528 ± 0.026,0.676 ± 0.0092,0.513 ± 0.021,0.54 ± 0.014,0.644 ± 0.0088,0.0225 ± 0.011
TLLSSIFLCLVL,0.575 ± 0.018,0.6448 ± 0.0023,0.477 ± 0.031,0.6128 ± 0.0011,0.466 ± 0.012,0.462 ± 0.024,0.574 ± 0.022,0.541 ± 0.1
TRHIGQYIHKIT,0.641 ± 0.048,0.734 ± 0.027,0.635 ± 0.027,0.694 ± 0.037,0.151 ± 0.0037,0.233 ± 0.049,0.436 ± 0.0061,0.339 ± 0.081
TSFLHLFVAAII,0.588 ± 0.027,0.632 ± 0.045,0.499 ± 0.02,0.5932 ± 0.0013,0.415 ± 0.009,0.434 ± 0.012,0.5505 ± 0.004,0.513 ± 0.024
TSLPPSPPPSPT,0.682 ± 0.016,0.713 ± 0.17,0.392 ± 0.044,0.563 ± 0.0085,0.373 ± 0.014,0.392 ± 0.012,0.562 ± 0.033,0.476 ± 0.025
TSPYTSFAHTSL,0.694 ± 0.029,0.739 ± 0.016,0.677 ± 0.031,0.739 ± 0.0074,0.662 ± 0.017,0.6569 ± 0.006,0.71286 ± 0.00012,0.69 ± 0.022
VAFGVASGWCWF,0.748 ± 0.048,0.8066 ± 0.0046,0.687 ± 0.016,0.848 ± 0.0032,0.373 ± 0.0093,0.397 ± 0.015,0.6902 ± 0.0057,0.488 ± 0.02
VAFILVVCKGIG,0.187 ± 0.029,0.2776 ± 0.0022,0.175 ± 0.016,0.327 ± 0.0048,0.122 ± 0.015,0.152 ± 0.013,0.287 ± 0.0077,0.2024 ± 0.00042
VAWWVCIRSCCG,0.51 ± 0.023,0.55 ± 0.057,0.427 ± 0.027,0.577 ± 0.012,0.353 ± 0.012,0.395 ± 0.015,0.53 ± 0.0066,0.486 ± 0.028
VCCSSVSLLVFA,0.362 ± 0.017,0.363 ± 0.01,0.267 ± 0.028,0.44 ± 0.0076,0.225 ± 0.0042,0.256 ± 0.033,0.419 ± 0.01,0.374 ± 0.023
VCGYGFAVPCYT,0.489 ± 0.013,0.549 ± 0.021,0.37 ± 0.026,0.5832 ± 0.0026,0.327 ± 0.012,0.372 ± 0.012,0.535 ± 0.0076,0.437 ± 0.02
VCILLVAWCLMG,0.168 ± 0.023,0.289 ± 0.049,0.24 ± 0.022,0.384 ± 0.0058,0.108 ± 0.02,0.124 ± 0.02,0.1546 ± 0.00053,0.217 ± 0.0097
VCLLGWGVRLVS,0.667 ± 0.031,0.7294 ± 0.0045,0.609 ± 0.038,0.72374 ± 7.5e-05,0.321 ± 0.0052,0.371 ± 0.023,0.576 ± 0.01,0.505 ± 0.079
VCMHIVLLAASP,0.244 ± 0.02,0.317 ± 0.017,0.187 ± 0.0068,0.284 ± 0.014,0.201 ± 0.028,0.202 ± 0.021,0.263 ± 0.011,0.193 ± 0.002
VCSRWFFVFVVR,0.402 ± 0.033,0.424 ± 0.043,0.331 ± 0.035,0.523 ± 0.014,0.409 ± 0.014,0.291 ± 0.051,0.4917 ± 0.0013,0.388 ± 0.011
VCVFFRLCIVWY,0.061 ± 0.0092,0.101 ± 0.0031,0.127 ± 0.017,0.171 ± 0.0065,0.115 ± 0.013,0.103 ± 0.021,0.145 ± 0.012,0.174 ± 0.036
VDGVSFFVVLLC,0.406 ± 0.087,0.503 ± 0.0085,0.343 ± 0.029,0.537 ± 0.0077,0.189 ± 0.0091,0.198 ± 0.026,0.427 ± 0.0064,0.311 ± 0.036
VDSTCLLITLLA,0.534 ± 0.1,0.4893 ± 0.0016,0.348 ± 0.036,0.506 ± 0.0053,0.245 ± 0.0068,0.296 ± 0.023,0.456 ± 0.02,0.41 ± 0.0047
VEIKSKRMLVVI,0.5115 ± 0.0011,0.538 ± 0.039,0.426 ± 0.028,0.578 ± 0.0069,0.287 ± 0.013,0.322 ± 0.04,0.4749 ± 0.0012,0.45639 ± 0.00022
VEQLLYIKATNV,0.689 ± 0.012,0.7025 ± 0.0067,0.6088 ± 0.0057,0.7288 ± 0.0038,0.238 ± 0.029,0.29 ± 0.036,0.5062 ± 0.0015,0.408 ± 0.019
VFDFVFHLRFVV,0.336 ± 0.032,0.419 ± 0.0096,0.427 ± 0.028,0.468 ± 0.0082,0.091 ± 0.019,0.0905 ± 0.025,0.117 ± 0.011,0.1155 ± 0.00063
VFFCLFVLFLSG,0.302 ± 0.0038,0.397 ± 0.0068,0.264 ± 0.043,0.437 ± 0.0073,0.251 ± 0.0072,0.282 ± 0.015,0.408 ± 0.021,0.423 ± 0.18
VFFGLYLVTFTS,0.219 ± 0.036,0.302 ± 0.045,0.222 ± 0.026,0.379 ± 0.013,0.196 ± 0.015,0.202 ± 0.025,0.3575 ± 0.0028,0.409 ± 0.042
